Assay results published in the supplement of paper PMC11246515.
± gives the standard deviation of the averaged measurements.

Assay: total protein half-life in vivo (active degradation + dilution); higher = more stable protein
[1] = E. coli NCM3722 delta-clpP delta-lon delta-hslV, growth: N-lim chemostat, doubling time 6 h
[2] = E. coli NCM3722 delta-clpP, growth: N-lim chemostat, doubling time 6 h
[3] = E. coli NCM3722 delta-lon, growth: N-lim chemostat, doubling time 6 h
[4] = E. coli NCM3722 delta-smpB, growth: N-lim chemostat, doubling time 6 h
[5] = wild type E. coli NCM3722, growth: C-lim chemostat, doubling time 3 h
[6] = wild type E. coli NCM3722, growth: C-lim chemostat, doubling time 6 h
[7] = wild type E. coli NCM3722, growth: N-lim chemostat, doubling time 6 h
[8] = wild type E. coli NCM3722, growth: N-lim chemostat, doubling time 12 h
[9] = wild type E. coli NCM3722, growth: P-lim chemostat, doubling time 6 h
[10] = wild type E. coli NCM3722, growth: P-lim chemostat, doubling time 12 h
[11] = E. coli NCM3722 delta-hslV, growth: N-lim chemostat, doubling time 6 h
[12] = wild type E. coli NCM3722, growth: C-lim chemostat, doubling time 12 h

| Sequence | total protein half-life in vivo [1] [h] | total protein half-life in vivo [2] [h] | total protein half-life in vivo [3] [h] | total protein half-life in vivo [4] [h] | total protein half-life in vivo [5] [h] | total protein half-life in vivo [6] [h] | total protein half-life in vivo [7] [h] | total protein half-life in vivo [8] [h] | total protein half-life in vivo [9] [h] | total protein half-life in vivo [10] [h] | total protein half-life in vivo [11] [h] | total protein half-life in vivo [12] [h] |
| --- | --- | --- | --- | --- | --- | --- | --- | --- | --- | --- | --- | --- |
| MGQLIDGVWHDTWYDTKSTGGKFQRSASAFRNWLTADGAPGPTGTGGFIAEKDRYHLYVSLACPWAHRTLIMRKLKGLEPFISVSVVNPLMLENGWTFDDSFPGATGDTLYQNEFLYQLYLHADPHYSGRVTVPVLWDKKNHTIVSNESAEIIRMFNTAFDALGAKAGDYYPPALQTKIDELNGWIYDTVNNGVYKAGFATSQEAYDEAVAKVFESLARLEQILGQHRYLTGNQLTEADIRLWTTLVRFDPVYVTHFKCDKHRISDYLNLYGFLRDIYQMPGIAETVNFDHIRNHYFRSHKTINPTGIISIGPWQDLDEPHGRDVRFG | 6.05 ± 0.31 | 4.89 ± 0.16 | 5.03 ± 0.45 | 5.01 ± 0.34 | 3.53 ± 0.54 | 5.64 ± 0.061 | 5.04 ± 0.15 | 8.28 ± 0.38 | 5.99 ± 0.58 | 12.3 ± 0.26 |  |  |
| MGQSSQPHELGGGLKSRHVTMLSIAGVIGASLFVGSSVAIAEAGPAVLLAYLFAGLLVVMIMRMLAEMAVATPDTGSFSTYADKAIGRWAGYTIGWLYWWFWVLVIPLEANIAAMILHSWVPGIPIWLFSLVITLALTGSNLLSVKNYGEFEFWLALCKVIAILAFIFLGAVAISGFYPYAEVSGISRLWDSGGFMPNGFGAVLSAMLITMFSFMGAEIVTIAAAESDTPEKHIVRATNSVIWRISIFYLCSIFVVVALIPWNMPGLKAVGSYRSVLELLNIPHAKLIMDCVILLSVTSCLNSALYTASRMLYSLSRRGDAPAVMGKINRSKTPYVAVLLSTGAAFLTVVVNYYAPAKVFKFLIDSSGAIALLVYLVIAVSQLRMRKILRAEGSEIRLRMWLYPWLTWLVIGFITFVLVVMLFRPAQQLEVISTGLLAIGIICTVPIMARWKKLVLWQKTPVHNTR |  |  |  | 1.1 |  |  |  |  |  |  | 0.975 |  |
| MGSGWHEWPLMIFTVFGQCVAGGFIVLALALLKGDLRAEAQQRVIACMFGLWVLMGIGFIASMLHLGSPMRAFNSLNRVGASALSNEIASGSIFFAVGGIGWLLAMLKKLSPALRTLWLIVTMVLGVIFVWMMVRVYNSIDTVPTWYSIWTPMGFFLTMFMGGPLLGYLLLSLAGVDGWAMRLLPAISVLALVVSGVVSVMQGAELATIHSSVQQAAALVPDYGALMSWRIVLLAVALCLWIAPQLKGYQPAVPLLSVSFILLLAGELIGRGVFYGLHMTVGMAVAS |  |  |  |  |  | 5.22 |  |  |  | 10.9 |  |  |
| MGSINLRIDDELKARSYAALEKMGVTPSEALRLMLEYIADNERLPFKQTLLSDEDAELVEIVKERLRNPKPVRVTLDEL [P0C079] | 3.41 ± 0.82 | 1.33 |  |  |  | 1.45 |  |  |  | 2.75 |  |  |
| MGTTTMGVKLDDATRERIKSAATRIDRTPHWLIKQAIFSYLEQLENSDTLPELPALLSGAANESDEAPTPAEEPHQPFLDFAEQILPQSVSRAAITAAYRRPETEAVSMLLEQARLPQPVAEQAHKLAYQLADKLRNQKNASGRAGMVQGLLQEFSLSSQEGVALMCLAEALLRIPDKATRDALIRDKISNGNWQSHIGRSPSLFVNAATWGLLFTGKLVSTHNEASLSRSLNRIIGKSGEPLIRKGVDMAMRLMGEQFVTGETIAEALANARKLEEKGFRYSYDMLGEAALTAADAQAYMVSYQQAIHAIGKASNGRGIYEGPGISIKLSALHPRYSRAQYDRVMEELYPRLKSLTLLARQYDIGINIDAEESDRLEISLDLLEKLCFEPELAGWNGIGFVIQAYQKRCPLVIDYLIDLATRSRRRLMIRLVKGAYWDSEIKRAQMDGLEGYPVYTRKVYTDVSYLACAKKLLAVPNLIYPQFATHNAHTLAAIYQLAGQNYYPGQYEFQCLHGMGEPLYEQVTGKVADGKLNRPCRIYAPVGTHETLLAYLVRRLLENGANTSFVNRIADTSLPLDELVADPVTAVEKLAQQEGQTGLPHPKIPLPRDLYGHGRDNSAGLDLANEHRLASLSSALLNSALQKWQALPMLEQPVAAGEMSPVINPAEPKDIVGYVREATPREVEQALESAVNNAPIWFATPPAERAAILHRAAVLMESQMQQLIGILVREAGKTFSNAIAEVREAVDFLHYYAGQVRDDFANETHRPLGPVVCISPWNFPLAIFTGQIAAALAAGNSVLAKPAEQTPLIAAQGIAILLEAGVPPGVVQLLPGRGETVGAQLTGDDRVRGVMFTGSTEVATLLQRNIASRLDAQGRPIPLIAETGGMNAMIVDSSALTEQVVVDVLASAFDSAGQRCSALRVLCLQDEIADHTLKMLRGAMAECRMGNPGRLTTDIGPVIDSEAKANIERHIQTMRSKGRPVFQAVRENSEDAREWQSGTFVAPTLIELDDFAELQKEVFGPVLHVVRYNRNQLPELIEQINASGYGLTLGVHTRIDETIAQVTGSAHVGNLYVNRNMVGAVVGVQPFGGEGLSGTGPKAGGPLYLYRLLANRPESALAVTLARQDAKYPVDAQLKAALTQPLNALREWAANRPELQALCTQYGELAQAGTQRLLPGPTGERNTWTLLPRERVLCIADDEQDALTQLAAVLAVGSQVLWPDDALHRQLVKALPSAVSERIQLAKAENITAQPFDAVIFHGDSDQLRALCEAVAARDGTIVSVQGFARGESNILLERLYIERSLSVNTAAAGGNASLMTIG | 5.93 ± 0.7 | 5.68 ± 0.72 | 2.81 ± 0.3 | 2.34 ± 0.047 | 2.08 ± 0.093 | 3.5 ± 0.57 | 2.64 ± 0.23 | 3.8 ± 0.28 | 2.46 ± 0.32 | 4.246 ± 0.04 | 2.39 ± 0.14 | 4.276 ± 0.022 |
| MHCPFCFAVDTKVIDSRLVGEGSSVRRRRQCLVCNERFTTFEVAELVMPRVVKSNDVREPFNEEKLRSGMLRALEKRPVSSDDVEMAINHIKSQLRATGEREVPSKMIGNLVMEQLKKLDKVAYIRFASVYRSFEDIKEFGEEIARLED [P0A8D0] | 6.05 ± 0.84 | 5.91 ± 0.41 |  | 4 ± 0.71 | 2.98 ± 1.4 | 4.6 ± 0.41 | 4.15 ± 0.58 | 6.44 ± 0.094 | 4.677 ± 0.038 | 10.76 ± 0.082 | 4.362 ± 0.017 | 9.06 ± 0.4 |
| MHEIFNMLLAVFDRAALMLICLFFLIRIRLFRELLHKSAHSPKELLAVTAIFSLFALFSTWSGVPVEGSLVNVRIIAVMSGGILFGPWVGIITGVIAGIHRYLIDIGGVTAIPCFITSILAGCISGWINLKIPKAQRWRVGILGGMLCETLTMILVIVWAPTTALGIDIVSKIGIPMILGSVCIGFIVLLVQSVEGEKEASAARQAKLALDIANKTLPLFRHVNSESLRKVCEIIRDDIHADAVAITNTDHVLAYVGVGEHNYQNGDDFISPTTRQAMNYGKIIIKNNDEAHRTPEIHSMLVIPLWEKGVVTGTLKIYYCHAHQITSSLQEMAVGLSQIISTQLEVSRAEQLREMANKAELRALQSKINPHFLFNALNAISSSIRLNPDTARQLIFNLSRYLRYNIELKDDEQIDIKKELYQIKDYIAIEQARFGDKLTVIYDIDEEVNCCIPSLLIQPLVENAIVHGIQPCKGKGVVTISVAECGNRVRIAVRDTGHGIDPKVIERVEANEMPGNKIGLLNVHHRVKLLYGEGLHIRRLEPGTEIAFYIPNQRTPVASQATLLL [P0AA93] | 6.72 | 6.87 ± 0.77 |  | 5.52 ± 0.31 | 2.84 ± 0.064 |  | 5.53 ± 0.67 |  |  | 14.8 ± 0.34 | 6.53 ± 0.56 |  |
| MHEITLCQRALELIEQQAAKHGAKRVTGVWLKIGAFSCVETSSLAFCFDLVCRGSVAEGCKLHLEEQEAECWCETCQQYVTLLTQRVRRCPQCHGDMLQIVADDGLQIRRIEIDQE [P0A700] | 4.63 | 2.12 |  | 1.76 |  |  | 2.36 | 2.23 |  |  |  | 11.3 |
